# According to the DeepSol protein solubility set:
# Assay: soluble on expression in E. coli; label from the status in PepcDB or PDB records
row,Sequence,soluble on expression in E. coli
1,GPGSMQVINENSLREFYAHVYPVELVTQWLSYRLSQPRLSAGSSVAVVKGEPTAVSGEESKDGVRHVLGIKAEPCDAVGAAAGADDEDKEWLNGKGAAAAEGYLARREFCFTLIGDIFTRFRSYRSSEELRAELVRCFPEKIDVGAVYNIRPNQKQGLANVFPVERELVFDIDMSDYDNVRSCCSGKSICSYCWAWMSCAAHVLHTVLRDDFGFKYILPVFSGRRGIHLWVCDRRARRMTNDERTALVGYLTVVAPKTLRSTIVADLANHRLIHPTIRHVLRTQLDRAFTSLFVASSSDNPNNIQHHPTAAYIVHDATSAVLKLGRRDALNRFQQHVHFQQGNVLDWATYLRALGSEQEATDILHAVQLLLMYPRLDEHVSTRRDHLLKLPFCVHPGTASLCCPLEWDEVDGFHPTEDAPKLHEMLLSRSLDVRWTLPLERMLKDMRTDEDENSS,not soluble
2,GPGSMRSVIRSCVIFPAAGVAMRHDSSQQWVLNVMYGTGLAPRYGSWKSFGVGDALKENDTPVLYCKALVHASGGGRRARDWVAGCSAALFPSYELLKIAMRHNSSEEDVERYRRHLVETLEKAQGPQTGSANDAGNVTSGEDGSKSDTENDTDINMRLSQMPEVRCFVYDAMRAACFHRYKKVPEEQRVKLFTVAARLGLDEGTTMAIWRLVEKEGIVARDKQRALESPWND,soluble
3,GPGSMSAHSAARRWTNLAGIGSCHPRHHHYPTSTKEVQDAVELVRSQNGKCRVAGAGKSPNTATFTNEHLIHMERMNRILSIDTVAHTITCEAGAVMEEVMRSVDKVGLMVRCVPSYVRTTVGGCIATATHSSGIQCHCLSDYVRGLKIVDGCAQIRTLVAGKDDAELRLAACHLGVMGIVTEVTLEVQPRIQWKLVSQPLLMKDATNAALVAEKVKSTEYYRWWWVPHTDGCYESYGRVESTTGISALPPLPDALTAQDDAPVQLSPAALQEESRTNESAERAGDRSISLIVKSALKYIATDFVRHQVVECSLYAACLCPAIQPYVNKAYRRAFFSAPQVQRGSALECFTFDCLFKQWANEWAIDASRAVEAFNRLRDMIDREGMLLHFPVEFRFTAPDVSDMSPAVGRPTCWIGVVMYRPYGQEARDTRRCYDGFCRVMEEMGGRPHWAKYYDWGHREITATYGDHWERFLALRRRMDPDDIFVNGWFRNLMSPDRVNSTACTP,not soluble
4,GPGSMSATDASITGAEAAPASPGTSPAATGPASTAAVTAYTVGIDIGSATTRVAVMDPAKLMPTIIRNALGNEATSTVVSFAANEARSFGENAAARQVTKASETIVDLAPWIFGYTSGEQVPKDTAVSLQVVSPATAMTEACVLKSRQLGAQEHLTHPAQVAAFYIKSLLQLLPEKGMIRTSPVCLAVPSAAYAASFEALRQATLLAGVPQEQTIIAHSDEATAVYFHHLQYSGLPAKHDGAAVPVVLIDIGQSCSVASLIMASQPRVEKVDCQTLRMGSEYIDALLCSHVYSELGKKFGAAADPLRGDIKSFRKILRECRKAKEVLSTTDETQVQLEGLSGDIDIIVSVTRAMMEQAALPFLQAVRAMLTAIKEKLPVPSATEDGSQAAAVPPRVEVIGGGWRSVCVMEAIREVFGITRVGVSLDANLSVAEGSAILAEVRQLTIARQQDEEQTAQATTASSVAEAHQVELIGFEVLDANSPINRPLSEAGVRAVTEWIMLEKQMEDSDARIHERLAALNRLDSYILQTLAAVDNCAASSEKKTEMRAYIEEVDAYVRSEGDEASSVELNEKLAAVQAHVTEHFSEIEAYYESVRAEEKRKEEELVKLSKERQEDESDLKSDPQRLRMAQKRREQGQGLFREECWAEAQTRFVQALSILGQLYDTSSEENKTKKREISLSCYLNIASCSVKLGLWKNAVNNCTNALELVPDHPKALFRRGQAYSALKEYEEAVTDLEKAKAVSQDDPVVVAELNKAKAALGAEKAKTKKMFAKMFS,soluble
5,GPGSMSCEVTMVGRDRDYLHDVQYGSRTFRLADRRIRAPSGLTVRAVDAEPIKDDVGVDAVLSCVPATCLENDGAHTPPMVRCAQNHADAPMLLFTRGFTREGLTPLEQLGRVSQDLPSKLVVVSGPLFAREWAVTSAAACDGGDANRNSGVTLSFALGGKADVELSRSLQSLTERLWRRESVTWLDGPLAAEILSLVNGCVPLCSMGAGLVSSEYPGSVSATMSYLQHATSATEQLVNGVLGLPLGSPLPSCAVATIAMACTNHAAREFVFGRRLDYHFRHRDAIRAVFPAGSHEALDSTVSGLHMLLRRHAMSSPFYEVLMDTFLTLMRASVAGRELVRLGHYEYRHKLRDEDTVLLRHTEVVDEAMLSGDHQRFDDARRALQMAFGDSSCGAPTMPPL,not soluble
6,GPGSMSKQKNVEINYDEVDETTGFKAAEMFVWLKFEESYLQKPEDEREADVDAWADTFCEEMEGEGMNYDRNFVRSVCTLGIYAGLRDEFQQRTGSGKAIYANGDRYDGEFFEGKKHGRGRYIFVSLGKSECDRIVEKELQKLGDVVAGENFVKAVADRYKIGCHIISYIIEYGFHPCYHGDYVRGKRVGRGLMKNKDGTVYKGEFLENKREGRGMFFYLNGDIYSGNWKNGRKHGYGTYHFVGGNEYRGMWNDGVFTHGQWIFPDGVYYEGHFNKKNRPCDEAASMHYPALKMAQTGTFKRGTWAPTSALEVCEETPVDGMTWTD,soluble
7,GPGSMSLEGKVALITGAGSGFGEGMAKRFAKGGAKVVIVDRDKAGAERVAGEIGDAALAVAADISKEADVDAAVEAALSKFGKVDILVNNAGIGHKPQNAELVEPEEFDRIVGVNVRGVYLMTSKLIPHFKENGAKGQECVILNVASTGAGRPRPNLAWYNATKGWVVSVTKALAIELAPAKIRVVALNPVAGETPLLTTFMGEDSEEIRKKFRDSIPMGRLLKPDDLAEAAAFLCSPQASMITGVALDVDGGRSIGGRSI,soluble
8,GPGSMSTSEGNAANRFAGRVKQAEDPFVKALRIKVNGLKRNMKDLEFAKKEVVCETARLESIRDTNPDRVKQQENVIAEAQMMIPHSENRVRAAIKDLQDFLDTHENDAEEGELMQDARTTLESAQLTLSKQ,soluble
9,GPGSMTGRTSSVSENHLGFSAEGGVVNYALLQPHRTEAERRPLAPSEVAQHLMASAAAASGATHSATGGSGAHTMRQCTPKELATRSSKVVTLYDLAGHERYLKTTVLGMTRNMPDYACIVISANNGIQRMTKEHLALCLALKLPFFIVVTRIDSTPPNIHDETLSNIHKLLKIPTVRKLSYPVRRHDEVTLAAKNCAMIALPRSSKSATLPVLASLTYCNSLTYSRLGRTGGRRATCQRR,not soluble
10,GPGSMVAPAQRTSVYVGDLPIDLPRPEEAINNLFSTVAPVVSVKVCRDMATQRSLGYGYVNFQTTADAEKVIDALNYTGIAPGRQIRVMFSIRDPLQRKSGMNNVFVKKLDTAINAKELQAAFSKCGRVLSCKVALDSAGNSKGYGFVQFETADGTKAALEMNGSKLGDSEVVVAPFVRRVDREAMAAKSFRNIYIKNITASATEADVKAIVEEFGKVDSLFLSEHARFPTKFALVAFEEHQAAVQAIAALNESEESGLTEKAVKLVVCRALSKSERDREKKKAASLYQNHGRNLYIKHLPDDITDDRLREIFEPFGKITSCAIMKEPNGTLKGFAFVCFEDKQHASAALRSLNGHPLEHSAKPLYVSHAEQKDMRIRLLQQRRAAMRHQSRMAPLMNTFPQQWPRHPFPHMVPPMMPPPPPPNMGMPQFMSGPMIRRPVMEPHLMQGEPMRPPNRYTQAREQYPPQQRQDGVDMNYLSTLSPEQQKNYLGELLYSRILPLESSNAAKITGMLLEMSREEIFEILADHFALLSKIQEANAVLQQHTGN,soluble
11,GPGSMVNATPDMARYCCAVIHSKLRGEKTPEPPASITNEPSPIFVSLKTLDGDLRGCIGNFSAEPLHKQLRDYAVAAAFQDNRFPSVTLAELPMLSCSVCLLHSFEKAHRWDDWEIGVHGIRIRYKNYSATYLPSVMPEQRWDHIQAIRSLMRKAGCGEEVSDAILNELDVTRYQESKSTVAFKSANLGSLPC,soluble
12,GPGSMWAQQLSLQKQTTKISPADKDAQALITANVFIEGNRMRVLKSMEQYQAVADSAYWNYGYMGGSMVTTMAICLSLSGRLPLLQRYASWISLAGGYFGGKAALGIHNARNLSHVVNTIDSAIVETRKMDEQYNFKIPDYAREVEALQRRKFELLPTSAEAIEARKNDLNNMPLDEKVDALVEAYEKRRQAVGKE,not soluble
13,GPGYNEPQDKKTMMMNEEDDGNGMDELLAVLGYKVRSSEMADVAQKLEQLEVMMSNVQEDDLSQLATETVHYNPAELYTWLDSMLTDLNPPSSNAEYDLKAIPGDAILNQ,soluble
14,GPLGSPWYYGKVTRHQAEMALNERGHEGDFLIRDSESSPNDFSVSLKAQGKNKHFKVQLKETVYCIGQRKFSTMEELVEHYKKAPIFTSEQGEKLYLVKHLS,soluble
15,GPMGMQSIREQSCRVVTCKTCKYTHFKPKETCVSENHDFHWHNGVKRFFKCPCGNRTISLDRLPKKHCSTCGLFKWERVGMLKEKTGPKLGG,soluble
16,GPPGPPGPPGPPGPRGRTGPPGPPGPPGPP,soluble
17,GPSLSGELHIFCSVTAAYSHLPPILDRFRAEHPSVEIKLTTGDAADAMEKVVTGEADLAIAGKPETLPGAVAFSMLENLAVVLIAPALPCPVRNQVSADKPDWSTVPFIMADQGPVRRRIELWFRRNKISNPMIYATVGGHEAMV,not soluble
18,GPTSPGPALTDWARVREELASTGPPVVAMPVVIKTEGPAWTPLEPKLITRLADTVRTKGLRSPITMAEVEALMSSPLLPHDVTNLMRVILGPAPYALWMDAWGVQLQTVIAAATRDPRHPANGQGRGERTNLNRLKGLADGMVGNPQGQAALLRPGELVAITASALQAFREVARLA,soluble
19,GQGVSRSGALDLGALRSANRTVGNPSDMACVESVLGGLSFSCHGSAVIAITGAHTPVTITSASGLQWQASNYQPIELETGDRVSLGSPKAGLRSYLAIRGGFDVTPVLGSLSTDTLAQLGPEALATGDRLGFTAPVNGTSVSLNEAPAFELPTTANIVTLDVVMGPRTDWFTENAIQRLSSQLWRVTPQSNRVGIRLAGDTPLERSNHQELPSEGTSVGAIQVPASGQPVLFLADHPLTGGYPVIASVASHHLDLAGQIPVNAQIRFNPLGAFEEMQPSTEASFSTADAKNNS,not soluble
20,GQLQEPYETVTIDVEEQHQGPIMEKMGVRKAELTDMAPDGTGRIRMDFIMPSRGLIGFQTEFMTLTSGSGLIYHTFFEYGPHKGGEIGQRKNGVMIGNATGKALTNAIFNLQSRGRMLIGHGVDIYEG,not soluble
21,GQSITDYNYKKPLHNDYQILDKSKIFGSNSGSFVMYSMKKDKYYIYNEKESRKRYSPNSTYKIYLAMFGLDRHIINDENSRMSWNHKHYPFDAWNKEQDLNTAMQNSVNWYFERISDQIPKNYTATQLKQLNYGNKNLGSYKSYWMEDSLKISNLEQVIVFKNMMEQNNHFSKKAKNQLSSSLLIKKNEKYELYGKTGTGIVNGKYNNGWFVGYVITNHDKYYFATHLSDGKPSGKNAELISEKILKEMGVLNGQ,soluble
22,GRKQEPFENVTLDVEEQHQGSVMQALGERKGDLKNMNPDGKGRVRLDYVIPSRGLIGFRSEFMTMTSGTGLLYSTFSHYDDVRPGEVGQRNNGVLISNGQGKAVAFALFGLQDRGKLFLGHGAEVYEGQI,not soluble
23,GRMRIQEQSGARDKMVIGAGGLEDYIDKAMDDVAPNLKALVGAKLGARLISLAGGLKELAMLPSSTIQVLGAEKALFRHLRTGAKPPKHGVIYQYPAINRSPWWQRGKIARALAGKLAIAARVDYFSGEYIAEELKKELEARIKEIKEKYPRPPKRRKEERKGRKPWKE,soluble
24,GRPVITTSIVQDQGIDELEAAIASLFFESGIESGDVTYVSNSRHIALLEQAKRAVEDALEAIEMDVPIDMVQIDITRAWELLGEIIGDSVHESLIDQLFSQFCLG,soluble
